The data set concerns the molecule itself. Kind of data set: amyloid aggregation.

B1: His-SUMO-hnRNPDL isoform 2 D259N (natural protein, human)
chain: MEDMNEYSNIEEFAEGSKINASKNQQDDGKMFIGGLSWDTSKKDLTEYLSRFGEVVDCTIKTDPVTGRSRGFGFVLFKDAASVDKVLELKEHKLDGKLIDPKRAKALKGKEPPKKVFVGGLSPDTSEEQIKEYFGAFGEIENIELPMDTKTNERRGFCFITYTDEEPVKKLLESRYHQIGSGKCEIKVAQPKEVYRQQQQQQKGGRGAAAGGRGGTRGRGRGQGQNWNQGFNNYYDQGYGNYNSAYGGDQNYSGYGGYNYTGYNYGNYGYGQGYADYSGQQSTYGKASRGGGNHQNNYQPY
On to B1, for which the binding result is reported as “binds”.

B2: His-SUMO-hnRNPDL isoform 2 D259H (natural protein, human)
chain: MEDMNEYSNIEEFAEGSKINASKNQQDDGKMFIGGLSWDTSKKDLTEYLSRFGEVVDCTIKTDPVTGRSRGFGFVLFKDAASVDKVLELKEHKLDGKLIDPKRAKALKGKEPPKKVFVGGLSPDTSEEQIKEYFGAFGEIENIELPMDTKTNERRGFCFITYTDEEPVKKLLESRYHQIGSGKCEIKVAQPKEVYRQQQQQQKGGRGAAAGGRGGTRGRGRGQGQNWNQGFNNYYDQGYGNYNSAYGGDQNYSGYGGYHYTGYNYGNYGYGQGYADYSGQQSTYGKASRGGGNHQNNYQPY
For the protein B2, the binding result is “binds”.

For the origin of these results see article PMC6996132 (Cell Reports, 2020).
